B1: ZBTB22 (parent)
chain: FSSSSQEAFAASAVGSGERRGGGP
B2: TPD52L2 (parent)
chain: EAEEEELRAELTKVEEEIVTLRQV

Variants of: B1
Test: protein stability index of a GFP-peptide fusion (GPS, HEK-293T) (PSI 1-6); higher = more stable
Settings: c terminus: a fixed tail appended
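Note: lentivirally expressed fusions sorted by FACS into six bins by GFP to DsRed ratio, PSI derived from sequencing read proportions per bin multiplied by bin number.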

Protein stability index: each site, then its substitutions
E18: Q 3.24; W 2.92; C 2.96; L 2.85; H 3.65; F 2.86; V 2.49; D 2.98; S 2.28; K 3.31; T 2.87
S16: L 2.75; T 3.61; I 3.06; H 3.27; Y 2.96; K 3.34; R 3.35; N 3.38; G 3.18; D 3.63; M 3.37; P 3.4; Q 2.96; E 4.25; F 2.4
Q6: G 4.22; I 2.5; L 2.85; Y 2.13; K 1.31; C 3.77; D 4.44; A 2.74; F 2.18; E 4.4; S 2.49; V 2.6; R 3; P 3.03
A11: L 3.04; Q 3.44; V 2.13; D 4.39; S 3.88; M 3.4; K 4.5; W 1.86; G 2.86; R 3.74; I 2.32; T 3.32
G17: V 3.48; S 3.39; C 4.17; D 3.88; E 3.52; M 3.35; A 3.02; H 3.62; W 2.85; N 3.28; I 2.74; L 3.12; K 2.63; Q 3.31; R 3.23; T 3.08; P 3.22; F 3.18
P24: Y 2.86; I 2.6; F 2.73; L 3.32; C 3.21; M 2.43; T 3.07; S 3.41; Q 2.79; N 3.29; E 3.8; R 3.03; V 2.92; K 3.33
R20: H 2.96; Q 3.71; K 3.37; P 4.34; D 3.64; V 3.41; N 3.36; T 3.63; L 3.78; I 3.17
V14: E 3.85; F 2.99; S 3.25; R 3.65; H 3.86; N 3.33; T 3.27; M 3.25; I 2.55; L 3.77; W 1.32; P 3.9; G 3.56; Q 3.52; K 3.33
S2: H 1.77; W 3.16; I 2.26; T 2.53; M 4.01; C 2.62; L 3.13; G 2.2; Q 2.55; Y 4.54; V 2.29; D 5.17
A8: L 2.25; M 2.17; K 3.79; P 3.94; E 4.74; H 3.86; F 2.55; S 4.18; D 5.19; V 2.11; Q 4.09; T 3.46; I 2.75; Y 1.88; C 2.47; R 3.96
G23: K 4.06; R 3.48; E 3.53; P 3.54; T 3.27; L 2.94; I 2.74; N 3.4; A 3.57; C 3.46; D 4.21; M 2.91; V 3.03; S 3.25; Y 2.87; F 3.75; H 3.39
E7: I 2.24; P 3.25; M 2.37; Q 3.67; L 1.55; G 3.12; V 1.96; H 2.31; N 2.84; D 3.99; Y 1.54; K 2.82
S5: N 3.61; T 4.41; D 4.27; H 2.86; V 4.15; P 4.56; K 3.91; Y 1.95; W 2.87; Q 4.35; F 2.45; L 3.66; E 4.15; A 2.71; R 3.7
S3: R 3.54; P 2.99; E 4.38; N 3.76; A 3.41; I 4.37; T 4.04; G 2.35; V 4.41; K 4.3; D 4.36; M 4.2; H 4.13; F 3.37
A13: I 3.04; N 2.57; V 3.87; F 2.64; T 2.71; W 3.02; H 3.17; D 3.9; R 3.78; K 3.36; G 3.01; M 2.79; Y 3.26; E 3.93; C 2.25; S 3.31
S4: H 3.21; V 3.87; M 3.36; L 3.65; I 3.62; T 3.29; P 4.25; K 2.65; G 1.93; W 1.68; D 3.98; E 4.28; A 3.14
F9: C 4.57; W 1.67; I 4.83; L 4.92; M 4.96; T 5.26; V 5.24; P 4.98; E 5.92; N 4.71; R 4.35; D 5.44
G15: N 3.43; K 3.41; Q 3.26; M 3.25; S 3.61; A 3.09; R 2.78; C 2.94; T 3.12; L 3.89; D 4.16; E 3.85; V 2.53; I 3.3
F1: E 5.43; C 3.94; R 5.67; W 5.09; P 5.33; T 5.39; Q 5.01; K 5.04; Y 3.48; G 5.5; V 5.17; I 5.3; L 5.29; A 4.9; N 5.02; S 4.85
R19: N 3.49; C 3.07; I 3.23; Y 3.32; D 2.53; G 3.82; M 3.35; T 3.78; F 3.15; H 3.34; S 3.86; E 4.24; W 2.04
G22: R 3.25; Y 2.57; N 3.55; P 3.7; S 3.33; M 2.44; C 3.29; T 3.72; F 2.96; E 3.66
A10: C 2.44; T 3.26; Y 2.27; V 2.58; S 3.22; L 3.26; F 2.41; M 3.16; E 4.74; D 5.25; P 3.89; K 3.2; Q 4.09; W 2.88; N 3.97; I 2.44; H 3.65
G21: P 3.69; A 3.64; I 3.48; R 3.35; E 3.68; S 3.85; F 3.22; Y 3.22; C 3.48; N 3.45; H 3.03; Q 3.73; L 3.05
S12: K 3.68; A 3.56; V 2.87; R 2.61; P 3.36; N 3.26; Q 3.71; G 3.61; Y 1.85; L 2.36; F 1.47; H 2.94

Variants of: B2
Test: as above
Settings: c terminus: a fixed tail appended

Protein stability index: each site, then its substitutions
V24: T 4.39; Y 3.83; W 3.89
